Assay results reported in article PMC3507203 (Biology Open, 2011).

Target: T1, GST-tagged KLHL18 (human, UniProt O94889 1-574)
T1 sequence (looked up): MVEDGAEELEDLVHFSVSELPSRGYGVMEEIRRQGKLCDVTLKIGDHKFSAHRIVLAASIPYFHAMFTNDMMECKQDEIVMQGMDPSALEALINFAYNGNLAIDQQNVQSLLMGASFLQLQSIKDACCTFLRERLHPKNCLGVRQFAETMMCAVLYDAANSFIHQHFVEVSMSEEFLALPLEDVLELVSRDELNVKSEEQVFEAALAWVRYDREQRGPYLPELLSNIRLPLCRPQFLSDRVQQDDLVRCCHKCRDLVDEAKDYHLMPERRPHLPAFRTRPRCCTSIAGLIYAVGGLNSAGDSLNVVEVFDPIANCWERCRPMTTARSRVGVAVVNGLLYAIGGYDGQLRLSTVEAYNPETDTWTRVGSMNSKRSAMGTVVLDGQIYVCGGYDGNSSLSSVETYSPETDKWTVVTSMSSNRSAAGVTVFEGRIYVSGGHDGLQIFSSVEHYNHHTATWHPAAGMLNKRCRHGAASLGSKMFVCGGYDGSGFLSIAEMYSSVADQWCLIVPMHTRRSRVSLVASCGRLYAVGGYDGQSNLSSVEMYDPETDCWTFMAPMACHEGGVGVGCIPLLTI
Assay: pull-down

binding result: binds
B1: histidine-tagged Aurora-A (natural protein, human, UniProt O14965 1-403, looked up)
chain: MDRSKENCISGPVKATAPVGGPKRVLVTQQFPCQNPLPVNSGQAQRVLCPSNSSQRIPLQAQKLVSSHKPVQNQKQKQLQATSVPHPVSRPLNNTQKSKQPLPSAPENNPEEELASKQKNEESKKRQWALEDFEIGRPLGKGKFGNVYLAREKQSKFILALKVLFKAQLEKAGVEHQLRREVEIQSHLRHPNILRLYGYFHDATRVYLILEYAPLGTVYRELQKLSKFDEQRTATYITELANALSYCHSKRVIHRDIKPENLLLGSAGELKIADFGWSVHAPSSRRTTLCGTLDYLPPEMIEGRMHDEKVDLWSLGVLCYEFLVGKPPFEANTYQETYKRISRVEFTFPDFVTEGARDLISRLLKHNPSQRPMLREVLEHPWITANSSKPSNCQNKESASKQS
